The source of these data is publication PMC5505988.

For the experiment, the target named is HLA-A*11:01 heavy chain with β2-microglobulin (human).

“SSCS, N-terminal 4-mer of EBV LMP2(340–349) (peptide)”: the melting temperature (Tm) of the pHLA complex refolded with SSCS + SCPLSK (m9 + m10), thermofluor thermal shift assay is 50.3 °C.
As for “SSCSS, N-terminal 5-mer of EBV LMP2(340–349) (peptide)”, the melting temperature (Tm) of the pHLA complex refolded with SSCSS + SCPLSK (m11 + m10), thermofluor thermal shift assay is 49.7 °C.
As to “SSCSSC, EBV LMP2(340–345), N-terminal 6-mer (peptide)”, the melting temperature (Tm) of the pHLA complex refolded with SSCSSC + SCPLSK (m13 + m10), thermofluor thermal shift assay turned out to be 48.7 °C and the melting temperature (Tm) of the pHLA complex refolded with SSCSSC + SSCPLSK (m13 + m5), thermofluor thermal shift assay is 49.4 °C.
